Test results published in patent US20190031762A1, “POSTERIOR OCULAR FIBROSIS INHIBITION BY ANTAGONIZING PLACENTAL GROWTH FACTOR” (THROMBOGENICS NV, priority 2016, published 2019).
Entries after “also recorded” stand apart in the source; their conditions may differ.

Columns and labels:
mouse CNV model [1] = assay: Leukocyte infiltration (CD45 staining) in laser-induced CNV mouse model; type: in vivo
Protocol: (§1) Mice (C57BL/6J, male, 8-10 weeks old) were anesthetized by intraperitoneal injection (135 μL) of a mixture of ketamine hydrochloride (Anesketin; […]) and medetomidine (Domitor; 1 mg/mL) and their pupils dilated with one eye drop (50 μL) Tropicamide (Tropicol™; 5 mg/mL; Thea, Research Papers Clermont-Ferrand, France). Three laser burns were placed in one eye with a green laser at the 9, 12, 3 o'clock positions around the optic disk using a slit lamp delivery system with a hand-held cover slide as a contact lens moisturized with Genteal Gel™ (Novartis, Vilvoorde, Belgium). Each spot was placed with a spot size of 100 μm, laser duration of a 50 milliseconds and a power of 320 mW. […] Finally, 300 μL atipamezole (Antisedan; 5 mg/mL) was injected intraperitoneally to reverse the effect of medetomidine and to reduce sedation time.
(§2) At different time points after lasering, the compounds were administered intravitreally (IVT). The animal was anesthetized with a mixture of ketamine hydrochloride/medetomidine and the eye was treated with a drop of 0.4% oxybuprocaine (Unicaine; Thea Pharma). Intravitreal injections (1 μL) to one eye according to Tables 1 to 3 were performed by using an analytic science syringe (SGE Analytic Science) and glass capillaries with a diameter of 50-70 μm at the end, controlled by the UMP3I Microsyringe Injector and Micro4 Controller (all from World Precision Instruments Inc., Hertfordshire, UK). Finally, atipamezole (Antisedan) was injected intraperitoneally to reverse the effect of medetomidine and to reduce sedation time.
(§3) To analyze the in vivo efficacy of the different compounds, the retina was removed from the dissected posterior segments. These posterior eye cups, which included retinal pigment epithelium (RPE), the choroid and the sclera were stored in phosphate buffered saline (PBS).
On day 5 after lasering, a rat anti-mouse CD45 and F4/80 antibody ( 1/100; Pharmingen, Erembodegem, Belgium) was used overnight to stain all leukocytes and macrophages, respectively, diluted in Tris-buffered saline (TBS)-Triton 0.3% (v/v). The following day, the tissues were incubated for 2 hours with rabbit anti-rat biotin labeled antibody ( 1/300; DakoCytomation A/S, Copenhagen, Denmark), diluted in TBS-Triton 0.3%. Antibody binding was visualized by fluorescent staining using streptavidin-Alexa-568 ( 1/200; Molecular Probes, Life Technologies, Eugene, Oreg., USA) in TBS-Triton 0.3% for 2 hours. The flatmounts of the posterior eye cups were mounted with Prolong Gold with 4′,6-diamidino-2-phenylindole (DAPI, Molecular Probes). Images were obtained using a microscope with a digital camera
(Axiocam MrC5; Carl Zeiss, Oberkochen, Germany) at a magnification of 20×. Morphometric analyses were performed using commercial software (Axiovision; Zeiss, Oberkochen, Germany). The density of inflammation was determined by calculating the CD45-positive area as a proportion of the total lesion.

mouse CNV model [2] = assay: Posterior ocular collagen deposition (Col1a staining) in laser-induced CNV mouse model; type: in vivo; conditions: for reduction in collagen deposition (Col1a): IVT D0, 4, 10 and 20
Protocol: as §1, §2, §3
To stain for the presence of collagen type 1 (Colla) protein in the laser spots at day 30 after laser, a rabbit anti-collagen antibody (Abcam, 1/270) was used overnight, diluted in Tris-buffered saline (TBS)-Triton 0.5% (v/v) at 4° C. The following day, the tissues were incubated for 2 hours with goat anti rabbit IgG Alexa Fluor 555 (Life Technologies; A-21428), diluted 1/100 in TBS-Triton 0.3% (v/v) at 4° C. The flat mounts of the posterior eye cups were mounted with Prolong Gold with 4′,6-diamidino-2-phenylindole (DAPI, Molecular Probes). Images were obtained using a microscope with a digital camera (Axiocam MrC5; Carl Zeiss, Oberkochen, Germany) at a magnification factor of 20. Morphometric analyses were performed using commercial software (Axiovision; Zeiss, Oberkochen, Germany). The density of collagen deposition was determined by calculating the Colla-positive area as a proportion of the total lesion.
(§4) The mouse CNV model as described in Example 2.1 was used. At different time points after lasering, compounds were administered intraperitoneally (IP), or intravitreally (IVT), as indicated in Table 3.

mouse CNV model [3] = assay: Macrophage infiltration (F4/80 staining) in laser-induced CNV mouse model; type: in vivo; conditions: day 5 after lasering; IVT D0; compared to IgG; dose not stated
Protocol: as §1
At different time points after lasering, the compounds were administered intravitreally (IVT). The animal was anesthetized with a mixture of ketamine hydrochloride/medetomidine and the eye was treated with a drop of 0.4% oxybuprocaine (Unicaine; Thea Pharma). […]

[4] = test system: retinal pigment epithelium (RPE) cell; conditions: Julien et al., Br J Ophthalmol 2014; cited from earlier work
[5] = test system: age-related macular edema (AMD); conditions: in vivo; cited from earlier work
[6] = test system: retinal ganglion cells (RGCs); assay: Neuroretinal safety in naive mice: apoptotic cells in ganglion cell layer (TUNEL staining); type: in vivo, mouse; conditions: 25 mg/kg IP 3 times per week
Protocol: A TUNEL (terminal deoxynucleotidyl transferase-mediated biotinylated UTP nick end labeling) staining was performed to investigate apoptotic signal. Serial sections were deparaffinized, washed and treated with proteinase K ( 1/500; Qiagen, Venlo, the Netherlands) for 15 minutes. Next, sections are incubated with the TUNEL reaction mixture (In Situ Cell Death Detection Kit, POD; Roche, Mannheim, Germany) at 37° C. for 1 hour. Afterwards, the slides were mounted with Prolong Gold containing DAPI (Molecular Probes). Each section was scanned systematically from the temporal to the nasal or a serrata for fluorescent cells indicative of apoptosis. […]

mouse CNV model [7] = assay: Pericyte coverage (αSMA staining) in mouse CNV model; type: in vivo; conditions: day 14 after lasering, 25 mg/kg IP 3 times per week
Protocol: as §1, §4
To study pericyte coverage as a marker of vessel maturation, smooth muscle cell actin (SMA) was examined on serial […] paraffin sections. […] The amount of SMA cells present in the lesion was determined by the use of commercial software (Axiovision; Zeiss, Oberkochen, Germany).

[8] = test system: retinal ganglion cells (RGCs); conditions: mouse, in vivo, ip, 25 mg/kg
Protocol: To investigate the safety of anti-PlGF and anti-VEGF-R2 on the retinal ganglion cell layer, naive mice (C75Bl/6 or Swiss mice) were injected with 25 mg/kg of anti-PlGF, anti-VEGF-R2 or control IgG 3 times a week for 6 weeks. Afterwards the mice were sacrificed and immunohistochemistry for the neuronal marker NeuN was performed. The samples were incubated overnight with the primary mouse anti-NeuN (Chemicon MAB377) 1/500. As secondary antibody, rabbit anti-mouse biotin-labeled 1/400 (Dako E0646) was added for 45 minutes. Subsequently, the sections were incubated with Streptavidin-HRP 1/100 in TNB for 30 minutes, followed by amplification with Biotin (kit NEL700) 1/50 in amplification buffer for 8 minutes and again incubated with Streptavidin-HRP 1/100 for 30 minutes (all from Perkin Elmer, Life Sciences). Hereafter, a 3,3-diaminobenzidine (DAB) staining (Fluka-Sigma Aldrich) was performed by adding peroxide to the tissue and a counterstaining was done with Harris hematoxylin (Merck). Viable RGCs were quantified 2 times on the same serial section on a defined length of the retina (250 μm) on either side of the optic nerve.

[9] = day 5, equimolar comparison FIG. 1B: 5D11D4 3.1 μg, DC101 3.1 μg, aflibercept 2.4 μg, TAAC 4 μg, vs IgG
[10] = day 30, equimolar comparison FIG. 2B: 5D11D4 3.1 μg, DC101 3.1 μg, aflibercept 2.4 μg, TAAC 4 μg, vs IgG
[11] = day 5, equimolar comparison FIG. 1B (5D11D4 3.1 μg, aflibercept 2.4 μg)
[12] = day 30, repeated IVT, 3.1 μg (FIG. 2A)
[13] = repeat experiment (FIG. 4), day 30, 3.1 μg/eye, compared to PBS

Molecule: CC1(C)O[C@@H]2C[C@H]3[C@@H]4CCC5=CC(=O)C=C[C@]5(C)[C@@]4(F)[C@@H](O)C[C@]3(C)[C@]2(C(=O)CO)O1 [TAAC, triamcinolone acetonide, reference compound]
- effect on leukocyte infiltration (CD45), in words (mouse CNV model [1]; [9]): no effect
- effect on collagen deposition, in words (mouse CNV model [2]; [10]): no effect
- reduction in collagen deposition (Col1a) (mouse CNV model [2]; repeat experiment (FIG. 4), day 30, 40 μg/eye, compared to PBS): 49%

Molecule: aflibercept: multispecific inhibitor capturing VEGF-A, VEGF-B and PlGF; tradename Eylea®, Bayer
- effect on inflammation in laser-induced CNV, summary statement (mouse CNV model [1]; comparable reduction at comparable dose, dose not stated): able to reduce inflammation
- reduction in leukocyte infiltration (CD45) (mouse CNV model [1]; [11]): 50%
- effect on leukocyte infiltration (CD45), in words (mouse CNV model [1]; day 5 after lasering, IVT D0, 2.4 μg, vs IgG (FIG. 1A)): comparable effects
- effect on leukocyte infiltration (CD45), in words (mouse CNV model [1]; day 5 after lasering, IVT D0, 20 μg, vs IgG (FIG. 1A)): comparable effects
- reduction in leukocyte infiltration (CD45) (mouse CNV model [1]; day 5 after lasering, single IVT D0, 2.4 μg, compared to IgG): approximately 50%
- reduction in leukocyte infiltration (CD45) (mouse CNV model [1]; day 5 after lasering, single IVT D0, 20 μg, compared to IgG): approximately 50%
- decrease of infiltration of macrophages (F4/80) (mouse CNV model [3]): 52%
- effect on collagen deposition, in words (mouse CNV model [2]; [10]): no effect; also recorded: did not show any anti-fibrotic effects
- effect on collagen deposition, in words (mouse CNV model [2]; day 30, repeated IVT, 2.4 μg (FIG. 2A)): no effect on collagen deposition
- effect on collagen deposition, in words (mouse CNV model [2]; [12]): did not show any anti-fibrotic effects
- effect on collagen deposition, in words (mouse CNV model [2]; day 30, repeated IVT, 20 μg (FIG. 2A)): no effect on collagen deposition
- effect on posterior ocular fibrosis, summary statement (mouse CNV model [2]; laser-induced CNV, dose not stated): did not reduce posterior ocular fibrosis
- effect on collagen deposition / fibrosis, in words (mouse CNV model [2]; repeat experiment (FIG. 4), day 30, equimolar amount 2.4 μg/eye, compared to PBS): did not reduce fibrosis
- effect on RPE cell death, in words [4]: increase retinal pigment epithelium (RPE) cell death

Molecule: bevacizumab: antibody binding all VEGF-A isoforms
- patients developing a posterior fibrotic scar [5]: 24.7%

Molecule: ranibizumab: antibody fragment binding all VEGF-A isoforms
- patients developing a posterior fibrotic scar [5]: 24.7%

B1: 5D11D4: murine anti-murine PlGF-neutralizing antibody; heavy chain SEQ ID NO:12, light chain SEQ ID NO:13 (antibody, listed as Mus musculus, V domains shown)
VH: QVQLQQPGAELVRPGASVKLSCKASGYTFTNYWINWVKQRPGQGLEWIGNIYPSDSFTNYNQKFKDKATLTVDKSSSTAYMHLSSPTSDDSAVYYCTRDYRYDAVYALDYWGQGTSVTVSS
VL: QIVLTQSPAIMSASPGEKVTITCSASSSVSFIHWFQQKPGTSPKLWIYGTSNLASGVPARFSGSGSGTSSSLTISRMEAEDAATYYCQQRSRYPYTFGGGTKLEIK
modifications: VH 5D11D4; VL 5D11D4
- reduction in leukocyte infiltration (CD45) (mouse CNV model [1]; [11]): 50%
- effect on leukocyte infiltration (CD45), in words (mouse CNV model [1]; [9]): decreased leukocyte infiltration
- effect on leukocyte infiltration (CD45), in words (mouse CNV model [1]; day 5 after lasering, IVT D0, 1.5 μg, vs IgG (FIG. 1A)): decreased leukocyte infiltration
- effect on leukocyte infiltration (CD45), in words (mouse CNV model [1]; day 5 after lasering, IVT D0, 3.1 μg, vs IgG (FIG. 1A)): decreased leukocyte infiltration
- reduction in leukocyte infiltration (CD45) (mouse CNV model [1]; day 5 after lasering, single IVT D0, 1.5 μg, compared to IgG): 36%
- reduction in leukocyte infiltration (CD45) (mouse CNV model [1]; day 5 after lasering, single IVT D0, 3.1 μg, compared to IgG): 46%
- decrease of infiltration of macrophages (F4/80) (mouse CNV model [3]): 48%
- effect on collagen deposition, in words (mouse CNV model [2]; [10]): delays the process of wound healing; also recorded: decreased collagen deposition
- effect on collagen deposition, in words (mouse CNV model [2]; day 30, repeated IVT, 1.5 μg (FIG. 2A)): decreased collagen deposition
- effect on collagen deposition, in words (mouse CNV model [2]; [12]): decreased collagen deposition
- reduction in collagen deposition (Col1a) (mouse CNV model [2]; day 30 after lasering, 1.5 μg, compared to IgG): 43%
- reduction in collagen deposition (Col1a) (mouse CNV model [2]; day 30 after lasering, 3.1 μg, compared to IgG): 44%
- effect on collagen deposition / fibrosis, in words (mouse CNV model [2]; [13]): significantly decreased collagen deposition
- reduction in collagen deposition (Col1a) (mouse CNV model [2]; [13]): 44%
- apoptotic cells per retinal area versus control IgG, in words ([6]; C57Bl/6 mice, after 6 weeks): comparable
- apoptotic cells per retinal area in the ganglion cell layer (TUNEL) ([6]; C57Bl/6 mice, after 6 weeks, control IgG 16±2): 20±4 apoptotic cells per retinal area
- effect on apoptotic cells / apoptotic rate, in words ([6]; Swiss mice (Rd gene)): did not induce any alteration
- αSMA-positive area versus control IgG, in words (mouse CNV model [7]): increased the αSMA (smooth muscle cell actin) positive area
- increase in pericyte-covered vessels (mouse CNV model [7]; vs control IgG): 35%
- RGCs/retinal area versus other treatment groups, in words [8]: not significantly different
- effect on RGC density, in words [8]: did not induce any alteration
- ganglion cell density (RGC/retinal area) [8]: 4600 RGC/retinal area
